Data reported in patent publication US20210292393A1 (published 2021).

Tests used:
[1] = molecular target: SARS-CoV-2 full length spike protein, D614G mutant, expressed on CHO cells (SARS-CoV-2, UniProt P0DTC2 14-1273)
[2] = molecular target: SARS-CoV-2 full length spike protein, V367F mutant, expressed on CHO cells (SARS-CoV-2, UniProt P0DTC2 14-1273)
[3] = molecular target: SARS-CoV-2 full length spike protein, V483A mutant, expressed on CHO cells (SARS-CoV-2, UniProt P0DTC2 14-1273)
[4] = molecular target: T1, SARS-CoV-2 full length spike protein, V483A mutant, expressed on the surface of CHO cells (SARS-CoV-2, UniProt P0DTC2 14-1273); assay: flow cytometry, CHO cells expressing full-length spike V483A
T1 construct: also called SARS-CoV-2 V483A mutant

[5] = molecular target: SARS-CoV-2 full length spike protein, V483A mutant (SARS-CoV-2, UniProt P0DTC2 14-1273)

Binder | median fluorescence intensity, fold over isotype control [1] [fold over isotype] | median fluorescence intensity, fold over isotype control [2] [fold over isotype] | median fluorescence fold over isotype control [3] [fold over isotype] | other results
antibody 502 (antibody, V domains shown) VH: QVQLVQSGAEVKKPGASVKVSCKASGYTFTSYYMHWVRQAPGQGLEWMGIINPSGGSTSYAQKFQGRVTMTRDTATSTVYMELSSLRSEDTAVYYCARGGGQISMIIVVMDDAFDIWGQGTMVTVSS VL: not shown | 77.3 | 51.8 | – | –
antibody 372 (antibody, V domains shown) VH: QVQLVESGGGVVQPGRSLRLSCAASGFTFSSYAMHWVRQAPGKGLEWVAVISYDGSNKYYADSVKGRFTISRDNSKNTLYLQMNSLRAEDTAVYYCARDLGTSALLWFGELFLNYGMDVWGQGTTVTVSS VL: QSALTQPRSVSGSPGQSVTISCTGTSSDVGGYNYVSWYQQHPGKAPKLMIYDVSKRPSGVPDRFSGSKSGNTASLTISGLQAEDEADYYCCSYAGSPILVFGGGTKLTVL | – | – | 18.1 | –
antibody 405 (antibody, V domains shown) VH: not shown VL: QSALTQPRSVSGSPGQSVTISCTGTSSDVGGYNYVSWYQQHPGKAPKLMIYDVSKRPSGVPDRFSGSKSGNTASLTISGLQAEDEADYYCCSYAGSYNVVFGGGTKLTVL | – | – | 7.51 | –
antibody 351 (antibody, V domains shown) VH: HVQLVESGGGVVQPGRSLRLSCAASGFISRNYGMEWVRQAPGQGLEWVAGIWYDGSKKYYADSVKGRFTISRDTSKNTLFLQMDSLRAEDTAVFYCATATKTFCGGDCPPGGMDVWGQGTTVTVST VL: SYVLTQPPSVSVAPGKTAWITCVGNNIESESVHWYQQRPGQAPVLVIYYDSDRPSGIPERFFGSNSGNTATLTISRVEAGDEADYYCQVWDSNSDLMVFGGGTKLTVL | – | – | – | binding result [4]: no binding
antibody 378 (antibody, V domains shown) VH: QVQLVQSGAEVKKPGASVKVSCKASGYTFTSYYMHWVRQAPGQGLEWMGIINPSGGSTSYAQKFQGRVTMTRDTSTSTVYMELSSLRSEDTAVYYCARDSGGMDDFWSGYYSPGGDYWGQGTLVTVSS VL: QSALTQPASVSGSPGQSITISCTGTSSDVGSYNLVSWYQQHPGKAPKLMIYEGSKRPSGVSNRFSGSKSGNTASLTISGLQAEDEADYYCCSYAGSSTWVFGGGTKLTVL | – | – | 14.3 | –
antibody 467 (antibody, V domains shown) VH: QVQLVQSGAEVKKPGASVKVSCKASGYTFISYGISWVRQAPGQGLEWMGWISAYNGNTNYAQKLQGRVTMTTDTSTSTAYMELRSLRSDDTAVYYCARGLWPGYYYGSGSYSAFHIWGQGTMVTVSS VL: QSALTQPPSASGSPGQSVSISCTGTSSDVGGYNYVSWYQQHPGKAPKLMIYEVSKRPSGVPDRFSGSKSGNTASLTVSGLQAEDEADYYCSSYAGSNKVFGGGTKLTVL | 7.54 | 30.6 | – | –
antibody 465 (antibody, V domains shown) VH: QITLKESGPTLVKPTQTLTLTCTFSGFSLSTSGVGVGWIRQPPGKALEWLALIYWDDDKHYSPSLKSRLTITKDTSKNQVVLTMTNMDPVDTATYYCAHMYYDILSGYYYGMDVWGQGTTVTVSS VL: not shown | 68.3 | 37.3 | – | –
antibody 343 (antibody, V domains shown) VH: QVQLVESGGDVVQPGTSLRLSCAASGFTFNNYGFHWVRQAPGKGLEWVALISSDGASTHYADSVKGRFTISRDSSVNTLYLQMNSLSLEDTAVYYCATGHCGTTCYYFDYWGQGTLVSVSS VL: DIQVTQSPSYLSASVGDRVTITCRASQTISTFLQWYQQKVGKAPKLLIYAASTLQSGVPSRFSGSGSGTDFSLTISSLQPEDFATYYCQQSYSAPLSFGGGTKVEIK | – | – | – | binding result [4]: no binding
antibody 395 (antibody, V domains shown) VH: QVQLVQSGSELKKPGASVKLSCQASGYTFSNHAMNWVRQAPGQGLEWMGWINTNTGNPTYAQGFTGRFVFSLDTSVGTAYLHISSLKAEDTAFYYCARASARPGVATNLDFWGQGTLVVVSS VL: DIQMTQSPSSLSASVGDRVTITCRTSQNIDNYLNWYQQKPGKAPNLLIYAASRLHSGVPSRFSGSGSGTDFTLIISSLQPEDLATYYCQQSYSNPLTFGPGTKVDIR | – | – | 8.92 | –
antibody 367 (antibody, V domains shown) VH: QVQLVQSGAEVKKPGASVKVSCKASGYTFTGYYIHWVRQAPGQGLEWMGWINPNSGGTIYAQKFQGRVTMTRDTSISTAYMELSRLTSDDTAVYSCAREPYYDILTGYYAPRRYFDYWGQGTLVTVSS VL: QSALTQPASVSGSPGQSITISCTGTSSDVGSYNYVSWYLQHPGKAPKLMIYDVSNRPSGVSNRFSGSKSGNTASLTISGLQAEDEADFYCSSYTSRSTYVFGTGTKVTVL | – | – | 16.3 | –
antibody 501 (antibody, V domains shown) VH: QVQLVQSGAEVKKPGASVKVSCKASGYTFTSYYVHWVRQAPGQSLEWMGVISPSTGSTTYAQNFQGRVTMTRDTSTTTVYMELSSLRSEDTAVYYCARDDYYDSTRYFDLWGRGTLVTVSS VL: QSALTQPASVSGSPGQSISFSCTGTSSDIGAYNYVSWYQQHPGRAPKLMIYDVGNRPSGVSNRFSGSKSGNTASLTISGLQAEDEADYYCSSYTSSSTQVFGTGTKVTVL | 46.1 | 30 | – | –
antibody 454 (antibody, V domains shown) VH: QVQLVQSGAEVKKPGASLKVSCKASGYIFTGYYMHWVRQAPGQGLEWMGWISPNSGGTKYAQKFQGRVTMTRDTSISTAYMELSRLRSDDSAVYYCAREPYYDILTGYYTPRRYLDYWGQGTLVTVSS VL: QSALTQPASVSGSPGQSITISCTGTSSDVGDYNYVSWYQQHPGKVPKLMIYDVSHRPSGVTNRFSGSKSGNTASLTISGLRAEDEADYYCSSYTSSSTYVFGTGTKVTVL | – | – | – | median fluorescence fold over isotype control [5]: 19.7 fold over isotype
antibody 456 (antibody, V domains shown) VH: QVQLQQWGAGLLKPSETLSLTCAVYGGSFSGYYWSWIRQPPGKGLEWIGEINHSGSTNYNPSLKSRVTISVDTSKNQFSLKLSSVTAADTAVYYCARDGSGSYYLSYYFDYWGQGTLVTVSS VL: not shown | – | – | – | median fluorescence fold over isotype control [5]: 8.16 fold over isotype
antibody 385 (antibody, V domains shown) VH: QVQLVESGGGVVQPGRSLRLSCAASGFTFSSYAIHWVRQAPGKGLEWVAVISYDGSNKYYADSVKGRFTISRDNSKNTLYLQMNSLRAEDTAVYYCARPRSGSYWGAFDIWGQGTMVTVSS VL: QSVLTQPPSVSGAPGQRVTISCTGSSSNIGARYDVHWYQQLPGTAPKLLIYGNSNRPSGVPDRFSGSKSGTSASLAITGLQAEDEADYYCQSYDSSLRGVFGGGTKLTVL | – | – | 8.16 | –
antibody 446 (antibody, V domains shown) VH: QVQLVESGGGVVQPGRSLRLSCAASGFTFSSYAMHWVRQAPGKGLEWVAVISYDGSNKYYADSVKGRFTISRDNSKNTLYLQMNSLRAEDTAVYYCARPNSGSYFGYFQHWGQGTLVTVSS VL: QSVLTQPPSVSGAPGQRVTISCTGSSSNIGAGYDVHWYQQLPGTAPKLLIYGNSNRPSGVPDRFSGSKSGTSASLAITGLQAEDEADYYCQSYDSSLSGFYVFGTGTKVTVL | – | – | – | median fluorescence fold over isotype control [5]: 6.16 fold over isotype
antibody 506 (antibody, V domains shown) VH: QITLKESGPTLVKPTQTLTLTCTFSGFSLSTSGVGVGWIRQPPGKALEWLALIYWDDDKRYSPSLKSRLTITKDTSKNQVVLTMTNMDPVDTATYYCAHHSLSSIFDYWGQGTLVTVSS VL: QSALTQPASVSGSPGQSITISCTGTSSDVGDYNYVSWYQQHPGKAPKLMIYEVSNRPSGVSNRFSGSKSGNTASLTISGLQAEDEADYYCSSYTSSSTVFGGGTKLTVLG | 69.5 | 42.3 | – | –
antibody 409 (antibody, V domains shown) VH: QVTLRESGPALVKPTQTLTLTCTFSGFSLSTSGMCVSWIRQPPGKALEWLALIDWDDDKYYSTSLKTRLTISKDTSKNQVVLTMTNMDPVDTATYYCARTTYYYVSGRRAEFDPWGQGTLVTVSS VL: NFMLTQPHSVSESPGKTVTISCTGSSGSIASNYVQWYQQRPGSAPTTVIYEDNQRPSGVPDRFSGSIDSSSNSASLTISGLKTEDEADYYCQSYDSSNQGVFGGGTKLTVL | – | – | 9.21 | –
antibody 482 (antibody, V domains shown) VH: EVQLVESGGGLVQPGGSLRLSCAASGFTFSSYWMTWVRQAPGKGLEWVANIKQDGSEKYYVDSVKGRFTISRDNAKNSLYLQMNSLRAEDTAVYYCARGVGSWYLGFDYWGQGTLVTVSS VL: NFMLTQPHSVSESPGKTVTISCTGSSGSIASNYVQWYQQRPGSAPTTVIYEDNQRPSGVPDRFSGSIDSSSNSASLTISGLKTEDEADYYCQSYDGSSYVFGTGTKVTVL | 14.3 | 2.89 | – | –
antibody 333 (antibody, V domains shown) VH: QVHLVESGGGVVLPGRSLRLSCSASQFIFSNYDMHWVRQSPGMGLEWVAGISSDGSDKYYIDSVRGRFTISRDNAKNTLFLQMNSLTTEDTAVYSCAKGGGKFGQYWGRGTLVTVSS VL: AIQMTQSPSSLSASVGDRVTITCRASQVIRNDLAWFQQKPGEAPNLLVYSASNLQSGVPSRFSGSGSGTDFTLTISSLQPEDFATYYCLQDYSYPYTFGQGTKLDMK | – | – | – | binding result [4]: no binding
antibody 508 (antibody, V domains shown) VH: EVQLVQSGAEVKKPGATVKISCKVSGYTFTDYYMHWVQQAPGKGLEWMGLVDPEDGETIYAEKFQGRVTITADTSTDTAYMELSSLRSEDTAVYYCAVENMITFGGVIVKRGAFDIWGQGTMVTVSS VL: not shown | 3.99 | 2.71 | – | –
antibody 332 (antibody, V domains shown) VH: QVTLRESGPALVKPTQTLTLTCTFSGFSLSTSGMCVSWIRQPPGKALEWLALIDWDDDKYYSTSLKTRLTISKDTSKNQVVLTMTNMDPVDTATYYCARIHDDILTGYHYVDYWGQGTLVTVSS VL: not shown | – | – | – | binding result [4]: no binding
